# Assay results: patent US10428140B2, “Anti-EphA4 antibody” (EISAI R&D MANAGEMENT CO., LTD., priority 2015, dated 2019)
# Tests used:
# [1] = test system: mouse, rat, monkey, and human EphA4; experiment: Reactivity ELISA with mouse, rat, monkey, and human EphA4; type: binding; settings: 0.00128-20 μg/mL
# Protocol: Mouse, rat, monkey, and human EphA4 extracellular region-Fc-His proteins were prepared according to the following steps. First, according to the method described in Example 1, a monkey EphA4 extracellular region-Fc-His protein expression vector was constructed. The amino acid sequence of monkey EphA4 used in the vector construction is shown in SEQ ID NO: 44, and its extracellular region is shown in SEQ ID NO: 45. Next, HEK293EBNA cells (Life Technologies) were inoculated to a 10-cm dish (Falcon) and cultured at 37° C. for 1 day. The HEK293EBNA cells were transfected with the monkey EphA4 extracellular region-Fc-His protein expression vector or the mouse EphA4, rat EphA4, or human EphA4 extracellular region-Fc-His protein expression vector described in Example 1 using TransIT-LT1 (TAKARA). After incubation (5% CO2, 37° C.) for 4 days, the culture supernatant was recovered and centrifuged at 1500 rpm at room temperature for 5 minutes. […]
# Antibody A was evaluated for its binding activity against various Eph receptors according to the following steps.
# Each well of a 96-well plate (Nunc) was coated with a donkey anti-mouse IgG antibody (Jackson ImmunoResearch Laboratories). […] The absorbance at 450 nm was read using a microplate reader (PerkinElmer).
# [2] = test system: EphA4 autophosphorylation induced by mouse Ephrin A1; experiment: In vivo competition assay using mouse newborns (EphA4 autophosphorylation in cerebral hemisphere); settings: 8-day-old mouse, 300 mg/kg subcutaneous
# Protocol: The in vivo competition assay using mouse newborns was conducted according to the following steps. PBS (Wako Pure Chemical Industries), antibody A, or a control antibody (mouse anti-dinitrophenol antibody) produced with a conventional procedure by immunizing […] with dinitrophenol was subcutaneously administered at a dose of 300 mg/kg (30 mL/kg) to each 8-day-old mouse (Charles River Laboratories Japan). After 24 hours, the scalp was incised under 4% isoflurane (Intervet) anesthesia, and mouse Ephrin A1-Fc chimera (300 pmol/head, R&D Systems) or PBS (Wako Pure Chemical Industries) was administered into the lateral ventricle. 1 hour thereafter, the mouse was euthanized by decapitation, followed by the extirpation of the cerebral hemisphere. […] 3×SDS sample buffer was added to a portion of the homogenate, which was then boiled for 10 minutes, followed by protein quantification. […] The remaining homogenate was subjected to protein quantification and then dispensed in an amount corresponding to 3 mg of protein, and 1% Triton X-100 (Wako Pure Chemical Industries) and 0.1% SDS (Nacalai Tesque) were added thereto. […] Western blotting using an anti-EphA4 monoclonal antibody (Abnova) was further performed, and band intensity was quantified to calculate a value of phosphorylated EphA4/total EphA4. […]
molecule,measurement,setting,value
"antibody A: mouse anti-EphA4 monoclonal antibody, IgG1/κ; heavy chain variable region SEQ ID NO: 11, light chain variable region SEQ ID NO: 13 (antibody, listed as Mus musculus, V domains shown) VH: QIQLVQSGPELKKPGETVKISCKASGYTFTDYSMHWVKQAPGKGLKWMGWINTETGEPTYADDFKGRFAFSLETSASTAYLQINNLKNEDTATYFCARIPLYYYGSRYWYFDVWGAGTTVTVSS VL: DIQMTQSPASLSVSVGETVTITCRASENIYRNLAWYQQKQGKSPQLLVYAATNLADGVPSRFSGSGSGTQYSLKINSLQSEDFGSYYCQHFWGTPWTFGGGTKLEIK","reaction activity against mouse, rat, monkey, and human EphA4 (in words)",[1],"equivalent reaction activity against all of mouse, rat, monkey, and human EphA4"
same,suppression of mouse EphrinA1-induced EphA4 autophosphorylation,[2],66%
